Experiments:
[1] = molecular target: T1, HA-MEKK4 (full-length murine, in 293 cells) (murine, UniProt O08648 1-1597, limits assumed); assay: co-IP from 293 cells
T1 construct: also called MEKK4/MTK1; not shown: HA tag

[2] = molecular target: T2, HA-GCK (full-length human, in 293 cells) (human, UniProt Q12851 1-820); assay: combined immunoprecipitation and Western blot, 293 cells
T2 construct: not shown: HA tag
T2 sequence (looked up): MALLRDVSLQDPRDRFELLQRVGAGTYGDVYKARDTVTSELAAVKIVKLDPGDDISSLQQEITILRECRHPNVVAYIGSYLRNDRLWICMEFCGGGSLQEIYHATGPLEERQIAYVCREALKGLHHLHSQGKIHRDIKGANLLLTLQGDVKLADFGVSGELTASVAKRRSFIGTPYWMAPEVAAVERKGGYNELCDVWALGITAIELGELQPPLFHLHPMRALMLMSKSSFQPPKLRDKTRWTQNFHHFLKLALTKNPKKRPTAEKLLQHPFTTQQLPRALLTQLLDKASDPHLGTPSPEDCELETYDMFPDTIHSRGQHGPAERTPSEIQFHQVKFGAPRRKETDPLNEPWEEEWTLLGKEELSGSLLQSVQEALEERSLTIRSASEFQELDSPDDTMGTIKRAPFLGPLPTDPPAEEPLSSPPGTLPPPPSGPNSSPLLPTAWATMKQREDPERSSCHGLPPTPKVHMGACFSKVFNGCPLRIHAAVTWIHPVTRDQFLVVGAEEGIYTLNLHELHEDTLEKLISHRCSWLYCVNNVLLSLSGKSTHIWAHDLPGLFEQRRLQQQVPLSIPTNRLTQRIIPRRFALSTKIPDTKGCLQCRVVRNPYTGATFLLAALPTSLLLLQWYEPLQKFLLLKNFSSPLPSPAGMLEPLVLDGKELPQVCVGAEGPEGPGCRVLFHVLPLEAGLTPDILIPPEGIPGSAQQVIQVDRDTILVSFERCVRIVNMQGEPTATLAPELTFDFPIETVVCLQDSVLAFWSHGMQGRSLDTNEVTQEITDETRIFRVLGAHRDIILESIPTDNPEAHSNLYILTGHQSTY

[3] = molecular target: T3, HA-GCKR (full-length human, in 293 cells) (human, UniProt Q9Y4K4 1-846); assay: as above
T3 construct: not shown: HA tag
T3 sequence (Q9Y4K4 whole entry): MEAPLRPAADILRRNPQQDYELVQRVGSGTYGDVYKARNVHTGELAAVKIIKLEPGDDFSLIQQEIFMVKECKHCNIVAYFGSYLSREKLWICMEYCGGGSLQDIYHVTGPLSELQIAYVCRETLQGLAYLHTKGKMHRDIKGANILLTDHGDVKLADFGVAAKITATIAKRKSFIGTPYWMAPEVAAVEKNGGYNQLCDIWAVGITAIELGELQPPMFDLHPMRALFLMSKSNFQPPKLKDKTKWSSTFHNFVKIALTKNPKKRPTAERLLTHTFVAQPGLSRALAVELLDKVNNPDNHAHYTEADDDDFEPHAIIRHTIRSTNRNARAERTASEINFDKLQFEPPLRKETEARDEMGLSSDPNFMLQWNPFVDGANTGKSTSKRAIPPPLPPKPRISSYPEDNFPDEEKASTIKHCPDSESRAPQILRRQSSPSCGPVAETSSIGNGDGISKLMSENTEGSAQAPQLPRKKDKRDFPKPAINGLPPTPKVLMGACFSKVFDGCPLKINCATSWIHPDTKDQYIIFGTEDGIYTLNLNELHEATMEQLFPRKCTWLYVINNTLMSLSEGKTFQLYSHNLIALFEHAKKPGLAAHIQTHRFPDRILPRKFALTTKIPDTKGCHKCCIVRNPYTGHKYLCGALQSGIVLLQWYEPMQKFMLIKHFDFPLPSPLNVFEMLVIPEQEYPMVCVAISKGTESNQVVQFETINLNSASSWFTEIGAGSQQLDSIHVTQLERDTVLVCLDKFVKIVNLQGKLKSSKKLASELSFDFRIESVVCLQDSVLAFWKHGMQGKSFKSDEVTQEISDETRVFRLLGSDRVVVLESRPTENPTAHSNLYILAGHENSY

[4] = molecular target: T4, HA-MEKK1 (full-length human, in 293 cells) (human, UniProt Q13233 1-1512, limits assumed); assay: co-IP from 293 cells, anti-FLAG beads, anti-HA Western blot
T4 construct: not shown: HA tag
T4 sequence (Q13233 whole entry): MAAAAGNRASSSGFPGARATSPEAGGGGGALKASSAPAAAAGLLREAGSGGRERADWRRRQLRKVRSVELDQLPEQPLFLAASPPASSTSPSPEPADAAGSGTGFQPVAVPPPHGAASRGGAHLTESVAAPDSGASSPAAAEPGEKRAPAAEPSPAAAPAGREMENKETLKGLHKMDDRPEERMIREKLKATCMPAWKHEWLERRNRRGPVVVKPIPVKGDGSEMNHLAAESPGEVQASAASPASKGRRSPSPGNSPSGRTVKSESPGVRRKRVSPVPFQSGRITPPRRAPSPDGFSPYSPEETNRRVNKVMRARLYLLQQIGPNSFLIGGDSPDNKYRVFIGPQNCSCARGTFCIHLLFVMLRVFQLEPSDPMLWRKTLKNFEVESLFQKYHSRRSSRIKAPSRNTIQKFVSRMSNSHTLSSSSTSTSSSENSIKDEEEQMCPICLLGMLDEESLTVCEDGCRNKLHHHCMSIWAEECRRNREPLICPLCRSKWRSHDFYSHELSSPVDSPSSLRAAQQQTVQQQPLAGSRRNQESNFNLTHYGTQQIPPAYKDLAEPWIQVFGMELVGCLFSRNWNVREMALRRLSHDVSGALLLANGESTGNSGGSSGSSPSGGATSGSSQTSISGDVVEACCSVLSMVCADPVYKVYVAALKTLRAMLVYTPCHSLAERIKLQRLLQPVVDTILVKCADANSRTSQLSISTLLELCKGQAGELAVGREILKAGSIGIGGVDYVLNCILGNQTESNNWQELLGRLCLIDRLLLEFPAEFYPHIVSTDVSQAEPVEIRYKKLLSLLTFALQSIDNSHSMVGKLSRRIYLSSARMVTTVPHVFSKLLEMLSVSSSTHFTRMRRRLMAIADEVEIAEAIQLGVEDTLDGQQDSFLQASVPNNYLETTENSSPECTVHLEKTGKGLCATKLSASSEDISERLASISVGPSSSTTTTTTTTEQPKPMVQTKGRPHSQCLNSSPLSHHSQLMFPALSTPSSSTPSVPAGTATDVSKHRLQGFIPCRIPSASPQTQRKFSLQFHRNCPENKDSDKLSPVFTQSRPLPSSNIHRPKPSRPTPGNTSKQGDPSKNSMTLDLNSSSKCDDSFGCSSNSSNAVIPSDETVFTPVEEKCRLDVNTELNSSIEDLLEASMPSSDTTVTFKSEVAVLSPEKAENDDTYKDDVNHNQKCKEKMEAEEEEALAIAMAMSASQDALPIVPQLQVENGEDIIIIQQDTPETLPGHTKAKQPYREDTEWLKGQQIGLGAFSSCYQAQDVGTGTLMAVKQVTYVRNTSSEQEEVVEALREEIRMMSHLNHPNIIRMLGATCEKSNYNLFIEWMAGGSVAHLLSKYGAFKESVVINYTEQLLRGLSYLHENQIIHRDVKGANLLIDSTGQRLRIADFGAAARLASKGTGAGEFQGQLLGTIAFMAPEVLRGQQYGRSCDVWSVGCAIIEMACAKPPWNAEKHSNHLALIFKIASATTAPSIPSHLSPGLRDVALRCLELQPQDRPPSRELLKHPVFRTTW

[5] = molecular target: T5, HA-MEKK3 (full-length human, in 293 cells) (human, UniProt Q99759 1-626, limits assumed); assay: as above
T5 construct: not shown: HA tag
T5 sequence (looked up): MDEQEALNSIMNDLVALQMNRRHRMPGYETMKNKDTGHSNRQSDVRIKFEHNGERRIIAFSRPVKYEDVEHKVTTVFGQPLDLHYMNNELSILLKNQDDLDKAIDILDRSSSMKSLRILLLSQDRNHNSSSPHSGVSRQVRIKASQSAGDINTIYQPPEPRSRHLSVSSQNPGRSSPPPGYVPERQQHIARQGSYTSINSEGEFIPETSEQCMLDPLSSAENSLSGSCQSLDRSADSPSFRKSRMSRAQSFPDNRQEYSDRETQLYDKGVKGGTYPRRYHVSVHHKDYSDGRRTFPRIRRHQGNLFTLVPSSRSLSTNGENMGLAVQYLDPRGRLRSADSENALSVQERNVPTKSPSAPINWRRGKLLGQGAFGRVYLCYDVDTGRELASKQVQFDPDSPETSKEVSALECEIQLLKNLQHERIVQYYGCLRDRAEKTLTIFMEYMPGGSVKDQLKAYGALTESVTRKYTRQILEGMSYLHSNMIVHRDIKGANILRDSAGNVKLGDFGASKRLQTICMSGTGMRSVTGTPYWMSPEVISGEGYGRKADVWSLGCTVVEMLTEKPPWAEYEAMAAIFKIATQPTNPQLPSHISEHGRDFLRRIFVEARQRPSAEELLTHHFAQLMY

[6] = molecular target: T6, HA-ASK1 (full-length human, in 293 cells) (human, UniProt Q99683 1-1374); assay: as above
T6 construct: not shown: HA tag
T6 sequence (looked up): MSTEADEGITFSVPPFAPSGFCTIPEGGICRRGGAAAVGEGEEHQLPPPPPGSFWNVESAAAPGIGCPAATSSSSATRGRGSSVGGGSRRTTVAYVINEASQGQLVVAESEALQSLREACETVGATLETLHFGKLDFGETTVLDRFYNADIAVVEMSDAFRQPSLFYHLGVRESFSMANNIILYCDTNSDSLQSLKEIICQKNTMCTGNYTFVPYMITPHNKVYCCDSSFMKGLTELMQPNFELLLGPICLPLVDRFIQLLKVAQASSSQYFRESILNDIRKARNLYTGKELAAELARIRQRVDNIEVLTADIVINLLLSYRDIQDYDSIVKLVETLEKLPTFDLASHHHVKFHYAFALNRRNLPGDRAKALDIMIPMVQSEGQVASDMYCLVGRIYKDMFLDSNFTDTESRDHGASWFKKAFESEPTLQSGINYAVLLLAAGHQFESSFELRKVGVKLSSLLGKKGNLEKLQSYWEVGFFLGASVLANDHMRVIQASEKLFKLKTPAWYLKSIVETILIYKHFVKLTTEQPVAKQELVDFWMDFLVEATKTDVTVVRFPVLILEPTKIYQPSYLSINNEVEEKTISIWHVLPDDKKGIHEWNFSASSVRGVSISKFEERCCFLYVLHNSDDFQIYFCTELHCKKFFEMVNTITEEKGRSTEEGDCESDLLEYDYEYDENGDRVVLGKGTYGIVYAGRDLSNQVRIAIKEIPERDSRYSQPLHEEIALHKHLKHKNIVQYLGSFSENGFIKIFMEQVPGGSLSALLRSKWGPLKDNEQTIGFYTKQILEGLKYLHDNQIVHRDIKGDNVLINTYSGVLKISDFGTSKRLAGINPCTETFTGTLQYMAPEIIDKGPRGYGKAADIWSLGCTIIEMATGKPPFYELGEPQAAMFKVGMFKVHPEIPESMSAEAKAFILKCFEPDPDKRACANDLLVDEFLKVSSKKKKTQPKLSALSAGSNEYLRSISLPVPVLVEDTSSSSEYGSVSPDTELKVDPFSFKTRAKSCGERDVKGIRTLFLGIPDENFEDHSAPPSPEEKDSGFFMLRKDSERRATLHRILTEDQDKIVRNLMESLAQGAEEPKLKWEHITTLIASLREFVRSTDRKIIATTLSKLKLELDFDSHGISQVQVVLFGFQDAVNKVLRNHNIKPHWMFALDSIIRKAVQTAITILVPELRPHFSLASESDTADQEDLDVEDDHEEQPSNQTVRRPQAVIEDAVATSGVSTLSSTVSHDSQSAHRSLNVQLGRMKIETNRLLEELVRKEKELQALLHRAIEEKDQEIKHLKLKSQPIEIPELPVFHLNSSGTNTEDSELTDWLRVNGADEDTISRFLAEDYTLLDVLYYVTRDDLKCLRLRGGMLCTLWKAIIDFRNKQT

T1 sequence (O08648 whole entry): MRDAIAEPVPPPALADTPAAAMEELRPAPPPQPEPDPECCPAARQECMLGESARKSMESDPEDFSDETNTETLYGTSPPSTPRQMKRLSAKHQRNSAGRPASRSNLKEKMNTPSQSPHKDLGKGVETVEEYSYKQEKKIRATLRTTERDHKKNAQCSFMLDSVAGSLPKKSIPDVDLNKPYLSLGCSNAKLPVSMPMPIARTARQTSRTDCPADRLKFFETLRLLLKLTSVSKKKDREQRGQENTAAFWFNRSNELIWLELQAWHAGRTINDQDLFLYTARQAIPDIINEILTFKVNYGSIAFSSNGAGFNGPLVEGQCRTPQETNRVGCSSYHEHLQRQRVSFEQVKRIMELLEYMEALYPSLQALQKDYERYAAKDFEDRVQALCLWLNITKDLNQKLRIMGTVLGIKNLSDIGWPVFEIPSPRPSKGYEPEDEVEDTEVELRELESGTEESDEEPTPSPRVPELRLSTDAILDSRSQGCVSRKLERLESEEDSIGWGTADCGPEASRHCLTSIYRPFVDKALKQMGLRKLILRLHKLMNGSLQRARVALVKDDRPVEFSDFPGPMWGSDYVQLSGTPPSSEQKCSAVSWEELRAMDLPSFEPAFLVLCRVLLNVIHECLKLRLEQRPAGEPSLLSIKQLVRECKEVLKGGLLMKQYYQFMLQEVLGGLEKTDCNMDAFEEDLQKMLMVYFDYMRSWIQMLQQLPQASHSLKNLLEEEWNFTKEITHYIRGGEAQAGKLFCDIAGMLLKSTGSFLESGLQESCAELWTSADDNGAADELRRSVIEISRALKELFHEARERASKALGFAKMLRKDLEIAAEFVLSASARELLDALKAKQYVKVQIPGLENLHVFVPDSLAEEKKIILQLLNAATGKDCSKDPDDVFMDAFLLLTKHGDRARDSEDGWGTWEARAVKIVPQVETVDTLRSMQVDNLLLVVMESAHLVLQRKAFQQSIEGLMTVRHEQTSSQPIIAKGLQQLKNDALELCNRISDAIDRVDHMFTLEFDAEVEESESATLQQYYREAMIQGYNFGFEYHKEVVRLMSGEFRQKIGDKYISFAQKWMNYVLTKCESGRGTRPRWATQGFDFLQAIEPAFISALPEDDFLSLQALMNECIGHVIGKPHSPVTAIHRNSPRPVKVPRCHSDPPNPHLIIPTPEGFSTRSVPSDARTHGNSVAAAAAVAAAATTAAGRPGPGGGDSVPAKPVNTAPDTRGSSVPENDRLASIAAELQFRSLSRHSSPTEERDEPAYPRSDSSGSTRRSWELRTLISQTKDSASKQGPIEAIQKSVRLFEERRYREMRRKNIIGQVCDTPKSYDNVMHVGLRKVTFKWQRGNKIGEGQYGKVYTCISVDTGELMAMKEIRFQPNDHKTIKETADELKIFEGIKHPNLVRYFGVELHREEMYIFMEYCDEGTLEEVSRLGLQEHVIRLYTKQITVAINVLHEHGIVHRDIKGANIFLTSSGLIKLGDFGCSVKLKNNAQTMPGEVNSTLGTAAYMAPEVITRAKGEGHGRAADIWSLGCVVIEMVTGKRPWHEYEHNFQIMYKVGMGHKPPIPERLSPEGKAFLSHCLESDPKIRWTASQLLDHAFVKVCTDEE

B1: FLAG-Gadd45β (full-length murine Gadd45β, pcDNA-FLAG-Gadd45β, expressed in 293 cells) (other, UniProt P22339 1-160, looked up)
chain: MTLEELVASDNAVQKMQAVTAAVEQLLVAAQRQDRLTVGVYEAAKLMNVDPDSVVLCLLAIDEEEEDDIALQIHFTLIQSFCCDNDIDIVRVSGMQRLAQLLGEPAETLGTTEARDLHCLLVTNCHTDSWKSQGLVEVASYCEESRGNNQWVPYISLEER
notes: range 1-160; Co-expressed with HA-tagged kinases in 293 cells for co-immunoprecipitation; not shown: FLAG tag
B1: binds [1]; no binding [2]; no binding [3]. B1: no binding [4]; no binding [5]; binds [6].

— patent publication US20050265970A1 (UNIVERSITY OF CHICAGO, published 2005)
